Data reported in patent US20260234269A1 (TRUEBINDING, published 2026).

T1: hGal3 peptide 4 (human)
T1 peptide: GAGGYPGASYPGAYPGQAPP

T2: hGal3 peptide 6 (human)
T2 peptide: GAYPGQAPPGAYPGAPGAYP

T3: hGal3 peptide 7 (human)
T3 peptide: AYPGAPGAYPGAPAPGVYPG


What was measured:
[1] = target: T4, Human Galectin-3 protein (Acro Biosystems, GA3-H5129) (human, UniProt P17931 2-250); assay: ELISA, hGal3 coated, antibody 3 ug/mL, competitor hTIM3
T4 construct: Bought protein; also called hGal3; Gal3; not shown: linker-spaced 6-histidine tag
T4 sequence (P17931 2-250): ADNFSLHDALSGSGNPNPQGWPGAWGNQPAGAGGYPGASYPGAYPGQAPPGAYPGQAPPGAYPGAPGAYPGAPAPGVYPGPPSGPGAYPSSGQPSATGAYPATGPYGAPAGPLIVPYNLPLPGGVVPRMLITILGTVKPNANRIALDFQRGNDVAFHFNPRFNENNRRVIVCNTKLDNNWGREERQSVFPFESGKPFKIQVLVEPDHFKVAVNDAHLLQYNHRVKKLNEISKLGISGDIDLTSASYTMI

[2] = target: T4, Human Galectin-3 protein (Acro …); assay: SPR Biacore T200, antibody captured, Galectin-3 analyte
[3] = target: T4, Human Galectin-3 protein (Acro …); assay: ELISA, hGal3 coated, competitor hTIM3 (FIG. 24)
[4] = target: T4, Human Galectin-3 protein (Acro …); assay: ELISA titration, blocking of GAL3-TIM3; competitor TIM3
[5] = target: T1, hGal3 peptide 4; assay: peptide ELISA, 20-mer library (Epitope Mapping)
[6] = target: T2, hGal3 peptide 6; assay: peptide ELISA, 20-mer library (Epitope Mapping)
[7] = target: T3, hGal3 peptide 7; assay: peptide ELISA, 20-mer library (Epitope Mapping)

| Binder | GAL3-TIM3 Blocking @ 3 ug/mL [1] [%] | Kd [2] [nM] | reduction of TIM3-GAL3 binding [3] [%] | IC50 [4] [nM] | binding result [5] | binding result [6] | binding result [7] |
| --- | --- | --- | --- | --- | --- | --- | --- |
| 846T.1H2 (antibody, V domains shown, murine antibody) VH: QIQLVQSGPELKKPGETVKISCKASGYTFTNYGMNWVKQAPGKGLKWMGWINTNTGEPTYAEEFKGRFAFSLETSASTAYLQINNLKNEDTATYFCATGGGNWDFDYWGQGTTLTVSS VL: not shown | 81 | 2.82 |  |  |  |  |  |
| 12G5.D7 (antibody, V domains shown, murine antibody) VH: QVQLKQSGAELVRPGASVKLSCKASGYTFTDYYINWVKQRPGQGLEWIARIYPGTGNTDYNEKFKGRATLTAEKSSSTAYMQLSSLTSEDSAVYFCARFAYYYGSGGYFDYWGHGTTLTVSS VL: DILMTQSPSSMSVSLGDTVSITCHASQGINSNMGWLQQKPGKSFKGLIYHATNLEDGVPSRFSGSGSGADYSLTISSLESEDFADYYCVQYAQFPPTFGSGTKLEIK | 12 | 1.9 | ≤ 25 |  |  |  |  |
| IMT001-4 (antibody, IgG4, V domains shown, also called HuIMT001-4) VH: QVQLVQSGSELKKPGASVKVSCKASGYTFTNYGMNWVRQAPGQGLKWMGWINTNTGEPTYVEEFTGRFVFSLETSVSTAYLQISSLKAEDTAVYFCAPYDNFFAYWGQGTTVTVSS VL: DIVLTQSPLSLPVTPGEPASISCRSSKSLLYKDGKTYLNWFLQKPGQSPQLLIYLMSTHASGVPDRFSGSGSGTDFTLKISRVEAEDVGVYYCQQLVDYPLTFGGGTKLEIKR |  |  |  | 5.6 |  |  |  |
| 4G2.2G6 (antibody, V domains shown, murine antibody) VH: QIQLVQSGPDLKKPGETVKISCKASGYTFTTYVMSWVKQAPGKDLKWMGWINTHSGVPTYADDFKGRFDFSLETSANTAFLQINNLKNEDTATYFCTRDGNDGDAMDNWGQGTSVTVSS VL: not shown | 48 | < 1 |  |  | binds |  |  |
| 2D10.2B2 (antibody, V domains shown, murine antibody) VH: QVQLQQSGPELVKPGASVKISCKASGYTFTDYYINWVKQRPGQGLEWIGWIYPGSNDTKYNEKFKGKATLTVDTSSSTAYMQLGSLTSEDSAVYFCANYFGCSGWFFDVWGTGTTVTVSS VL: DIVMTQAAFSNPVTLGTSASISCRSSKSLLHSDGITYLYWYLQRPGQSPQLLIYRMSNLASGVPDRFSGSGSGTDFTLRISRVEAEDVGVYYCAQMIEFPLTFGAGTILELK | 86 | 0.753 |  |  |  | binds |  |
| 4A11.2B5 (antibody, V domains shown, murine antibody; parent of IMT006-1 and IMT006-5) VH: QVQLQQSGPELVKPGASVKISCKASGYSFTNYYIHWVKQRPGQGLEWIGWIYPGSGNTNYNEKFKGKATLTADTSSSTTNMQLSSLTSEDSAVYYCSTAPGGFDVWGSGTTVTVSS VL: DIVMTQAAFSNPVTLGTSASISCRSSKSLLHSDGITYLYWYLQRPGQSPQLLIYRMSNLASGVPDRFSGSGSGTDFTLRISRVEAEDVGVYYCAQMLEFPLTFGAGTKLELK | 48 | 5.22 |  |  |  | binds |  |
| IMT006-5 (antibody, V domains shown, humanized antibody derived from 4A11.2B5) VH: QVQLVQSGAEVKKPGASVKVSCKASGYSFTNYYMHWVRQAPGQRLEWMGWIYPGSGNTNYNEKFQGRVTITADTSASTAYMELSSLRSEDTAVYYCSTAPGGFDVWGQGTTVTVSS VL: DIVMTQTPLSLSVTPGQPASISCKSSKSLLHSDGITYLYWYLQKPGQSPQLLIYRMSNLASGVPDRFSGSGSGTDFTLKISRVEAEDVGVYYCAQMLEFPLTFGQGTKLEIKR |  |  |  | 4.1 |  |  |  |
| IMT006-1 (antibody, V domains shown, humanized antibody derived from 4A11.2B5; also called HuIMT006-1) VH: QVQLVQSGAEVKKPGASVKVSCKASGYSFTNYYMHWVRQAPGQGLEWMGWIYPGSGNTNYNEKFQGRVTMTADTSISTAYMELSRLRSDDTAVYYCSTAPGGFDVWGQGTTVTVSS VL: DIVMTQTPLSLSVTPGQPASISCKSSKSLLHSDGITYLYWYLQKPGQSPQLLIYRMSNLASGVPDRFSGSGSGTDFTLKISRVEAEDVGVYYCAQMLEFPLTFGQGTKLEIKR |  |  |  | 26.5 |  |  |  |
| IMT006-8 (antibody, V domains shown, humanized antibody) VH: QVQLVQSGAEVKKPGASVKVSCKASGYSFTNYYIHWVRQAPGQRLEWMGWIYPGSGNTNYNEKFQGRVTLTADTSASTTYMELSSLRSEDTAVYYCSTAPGGFDVWGQGTTVTVSS VL: DIVMTQSPLSLPVTPGEPASISCRSSKSLLHSDGITYLYWYLQKPGQSPQLLIYRMSNLASGVPDRFSGSGSGTDFTLKISRVEAEDVGVYYCAQMLEFPLTFGQGTKLEIKR |  |  |  | 2.8 |  |  |  |
| 13H12.2F8 (antibody, V domains shown, murine antibody) VH: QIQLVQSGPELKKPGETVKISCKASGYTFTTYGMSWVKQAPGKGLKWMGWINTYSGVPTYADDFKGRFAFSLETSASTAYLQINNLKNEDTATYFCAVPYEYDGAYWGQGTLVTVSA VL: not shown | 57 | 6.07 |  |  |  | binds | binds |
| 14H10.2C9 (antibody, V domains shown, murine antibody) VH: QIQLVQSGPELKKPGETVKISCKASGYTFTTYGMGWVKQAPGKDLKWMGWINTYSGVPTYADDFKGRFAFSLETSASTAYLQISNLKNEDTATYFCSTPYEYDGAYWGQGTLVTVSA VL: not shown | 44 | 0.562 |  |  |  | binds | binds |
| 19D9.2E5 (antibody, V domains shown, murine antibody) VH: QIQLVQSGPELKKPGETVKISCKASGYTFTTYGMGWVKQAPGKGLKWMGWINTYSGVPTYADDFKGRFAFSLETSTSTAYLQINNLKNEDMATYFCATPYEYDGAYWGQGTLVTVSA VL: not shown | 34 | < 1 |  |  |  | binds | binds |
| 19B5.2E6 (antibody, V domains shown, murine antibody) VH: QIQLVQSGPELKKPGETVKISCKASGYTFTTYAMSWVKQAPGKGLKWMGWINTYSGVPTYADDLKGRFAFSLETSASTAYLQINNLKNEDTATYFCARGPYAMDYWGQGTSVTVSS VL: DIQMTQTTSSLSASLGDRVTISCSASQGINNYLNWYQQKPDGTVKLLIYYASSLHSGVPSRFSGSGSGTDYSLTISNLEPEDIATYYCQQYSQVPYTFGSGTKLEIK | 61 | < 1 |  |  |  |  |  |
| 20H5.A3 (antibody, V domains shown, murine antibody) VH: QIQLVQSGPELKKPGESVKISCKASGYAFTTYGMSWVQQAPGKGLKWMGWVNTYSGVPTCADDFKGRFAFSLETSASTAYLQINNLRNEDTATYFCARGPYAMDYWGQGTSVTVSS VL: DIQMTQTTSSLSASLGDRVTINCSASQDISNYLNWYQQKPDGTVKLLIYYTSSLLSGVPSRFSGSGSGTDYSLTISNLEPEDIATYFCQQYSKLPYTFGSGTHLEIK | 81 | 3.95 |  |  |  |  |  |
| 23H9.2E4 (antibody, V domains shown, murine antibody) VH: QIQLVQSGPELKKPGETVKISCKASGYTFTTYAMSWVKQAPGKGLKWMGWINTYSGVPTYADDLKGRFAFSLETSASTAYLQINNLKNEDTATYFCARGPYAMDYWGQGTSVTVSS VL: DIQMTQTTSSLSASLGDRVTISCSASQGINNYLNWYQQKPDGTVKLLIYYASSLHSGVPSRFSGSGSGTDYSLTISNLEPEDIATYYCQQYSQVPYTFGSGTKLEIK | 80 | 4.26 |  |  |  |  |  |
| 6H6.2D6 (antibody, V domains shown, murine antibody) VH: QIQLVQSGPELKKPGETVKISCKASGYTFTTYGMSWVKQAPGKGLKWMAWINTYSGVPTYADDFKGRFAFSLETSASTAYLQINNLTNEDTATYFCARGPYAMDYWGQGTSVTVSS VL: DIQMTQTTSSLSASLGDRVTISCSASQGISNYLNWYQQKPDGTVKLLIYYTSSLHSGVPSRFSGSGSGTDYSLTISNLEPEDIATYYCQQYSELPYTFGSGTKLEIK | 82 | 4.86 |  |  |  |  |  |
| 846.2H3 (antibody, V domains shown, murine antibody) VH: QIQLVQSGPELKKPGETVKISCKASGYTFTNYGMNWVKQAPGKGLKWMGWINTYTGEPSYADDFKGRFAFSLETSASTAYLQINNLKNEDMATYFCARWGGYDGDYYAMDYWGQGTSVTVSS VL: NIMMTQSPSSLAVSAGEKVTMSCKSSQSVLYSSNQKNYLAWYQQKPGQSPKLLIYWASTRESGVPDRFTGSGSGTDFTLTISSVQPEDLAVYYCHQYLSSLTFGAGTKLELK | 100 | 10.2 |  |  |  |  |  |
| 846.1F5 (antibody, V domains shown, murine antibody) VH: QIQLVQSGPELKKPGETVKISCKASGYTFTNYGMNWVKQAPGKGLKWMGWINTYTGEPSYADDFKGRFAFSLETSASTAYLQINNLKNEDMATYFCARWGGYDGDYYAMDYWGQGTSVTVSS VL: NIMMTQSPSSLAVSAGEKVTMSCKSSQSVLYSSNQKNYLAWYQQKPGQSPKLLIYWASTRESGVPDRFTGSGSGTDFTLTISSVQPEDLAVYYCHQYLSSLTFGAGTKLELK | 90 | 2.73 |  |  |  |  |  |
| 3B11.2G2 (antibody, V domains shown, murine antibody; also called 3B11.2D2) VH: QIQLVQSGPELKKPGETVKISCKTSGYKFKTYVMSWVKQAPGKALKWMGWINTYSGVPTYADDFKGRFAFSLETSASTAYLEIINLKNEDTATYFCARDGNYGDPMDYWGQGTSVTVSS VL: not shown | 33 | < 1 |  |  | binds | binds |  |
| 13A12.2E5 (antibody, V domains shown, murine antibody) VH: QIQLVQSGPELKKPGETVKISCKTSGYKFKTYVMSWVKQAPGKALKWMGWINTYSGVPTYADDFKGRFAFSLETSASTAYLEIINLKNEDTATYFCARDGNYGDPMDYWGQGTSVTVSS VL: DVVMTQTPLTLSVAIGQPASISCKSSQSLLYTNGKTYLNWLLQRPGQSPKRLIYLLSKLDSGVPDRFSASGSGTDFTLKISRVEAEDLGVYYCLQSTHFPLTFGAGTKLEMK | 35 | 8.2 |  |  | binds | binds |  |
